Molecular target: Mouse importin β (mouse) (UniProt P70168)
Assay: SPR

Mouse importin β (mouse), sequence (P70168 whole entry): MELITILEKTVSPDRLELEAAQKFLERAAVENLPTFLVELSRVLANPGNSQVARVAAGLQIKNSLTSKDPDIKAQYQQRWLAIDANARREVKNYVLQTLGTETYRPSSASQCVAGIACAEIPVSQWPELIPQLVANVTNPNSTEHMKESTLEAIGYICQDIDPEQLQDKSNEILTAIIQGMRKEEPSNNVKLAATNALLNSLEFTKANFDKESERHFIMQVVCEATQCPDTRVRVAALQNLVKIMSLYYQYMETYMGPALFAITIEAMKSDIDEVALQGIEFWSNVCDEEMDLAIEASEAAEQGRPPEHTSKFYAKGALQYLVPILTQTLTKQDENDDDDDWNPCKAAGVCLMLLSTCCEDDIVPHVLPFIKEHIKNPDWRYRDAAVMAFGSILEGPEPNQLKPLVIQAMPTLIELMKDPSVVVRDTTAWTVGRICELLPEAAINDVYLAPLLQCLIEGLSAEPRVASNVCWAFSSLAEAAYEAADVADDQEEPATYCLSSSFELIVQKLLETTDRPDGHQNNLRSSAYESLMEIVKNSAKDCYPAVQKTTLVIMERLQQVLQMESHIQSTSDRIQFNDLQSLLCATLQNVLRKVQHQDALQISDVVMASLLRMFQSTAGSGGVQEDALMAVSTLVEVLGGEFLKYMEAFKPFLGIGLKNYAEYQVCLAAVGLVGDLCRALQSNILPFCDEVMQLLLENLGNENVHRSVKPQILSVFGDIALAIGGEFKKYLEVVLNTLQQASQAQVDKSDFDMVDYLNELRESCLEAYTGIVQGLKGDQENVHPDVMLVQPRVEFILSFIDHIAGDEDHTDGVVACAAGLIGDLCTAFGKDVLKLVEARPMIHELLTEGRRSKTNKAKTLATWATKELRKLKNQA

koff: 0.00107 s⁻¹
kon: 44400 M⁻¹ s⁻¹
Substance: human RanGTP (from UniProt P62826 1-216) (natural protein; other documents disagree on this pair)

Reference: article PMC4694755
